Legend:
B. cenocepacia = assay: Checkerboard synergy assay with meropenem against B. cenocepacia; format: cell-based, Burkholderia cenocepacia; settings: for MIC (dual agent): GN370 + meropenem; for FICmin / FICmin interpretation: GN370 with meropenem
Excerpt: In some embodiments, the Chp peptides disclosed herein or active fragments thereof reduce the minimum inhibitory concentration (MIC) of an antibiotic in the presence and/or absence of human serum, pulmonary surfactant, and/or sputum, including human sputum and human sputum from a cystic fibrosis patient. Any known method to assess MIC may be used. In some embodiments, a checkerboard assay is used to determine the effect of a Chp peptide or active fragment thereof on antibiotic concentration. The checkerboard assay is based on a modification of the CLSI method for MIC determination by broth microdilution (See Clinical and Laboratory Standards Institute (CLSI), CLSI. 2015. Methods for Dilution Antimicrobial Susceptibility Tests for Bacteria That Grow Aerobically; Approved Standard-10th Edition. Clinical and Laboratory Standards Institute, Wayne, PA, which is herein incorporated by reference in its entirety and Ceri et al. 1999. J. Clin. Microbiol. 37: 1771-1776, which is also herein incorporated by reference in its entirety).
Checkerboards are constructed by first preparing columns of e.g., a 96-well polypropylene microtiter plate, wherein each well has the same amount of antibiotic diluted 2-fold along the horizontal axis. […] The Chp peptide or active fragment thereof and antibiotic dilutions are then combined, so that each column has a constant amount of antibiotic and doubling dilutions of Chp peptide, while each row has a constant amount of Chp peptide and doubling dilutions of antibiotic. Each well thus has a unique combination of Chp peptide and antibiotic. Bacteria are added to the drug combinations at concentrations of 1×10^5 GFU/ml in CAA, for example, with or without human serum or pulmonary surfactant. […] Summation fractional inhibitory concentrations (ΣFICs) are calculated for each drug and the minimum ΣFIC value (ΣFICmin) is used to determine the effect of the Chp peptide/antibiotic combination.
The synergy of GN370 with meropenem was evaluated against 3 different strains of P. aeruginosa and three different strains of B. cenocepacia.

A. baumannii [1] = assay: Checkerboard synergy assay (FICI) against A. baumannii; format: cell-based, Acinetobacter baumannii; settings: A. baumannii ATCC BAA-747
Description: Any known method to assess MIC may be used.
Checkerboards are constructed by first preparing columns of e.g., a 96-well polypropylene microtiter plate, wherein each well has the same amount of antibiotic diluted 2-fold along the horizontal axis. […] Bacteria are added to the drug combinations at concentrations of 1×10^5 […] in CAA, for example, with or without human serum or pulmonary surfactant. […] Summation fractional inhibitory concentrations (ΣFICs) are calculated for each drug and the minimum ΣFIC value (ΣFICmin) is used to determine the effect of the Chp peptide/antibiotic combination.
GN370 was further tested in combination with up to seven additional antibiotics (in addition to meropenem) against a variety of bacterial strains, including P. aeruginosa, A. baumannii, E. coli, E. cloacae, and K. pneumoniae. GN370 and the subject antibiotics were tested in a checkerboard assay format, and FICI values were determined, wherein ≤0.5 indicates synergy, >0.5-≤1 indicates additive; and >1 indicates indifferent.

A. baumannii [2] = assay: MIC by broth microdilution against A. baumannii; format: cell-based, Acinetobacter baumannii
Enterobacter aerogenes = assay: MIC by broth microdilution against Enterobacter aerogenes; format: cell-based; settings: N 1
Description: (§1) MIC values were determined by broth microdilution against clinical isolates and resistant isolates from a wide range of bacterial species, including isolates from the CDC Antibiotic Resistance bank, including the GN ESKAPE pathogens and E. coli, including carbapenem-resistant Enterobacteriaciae, Acinetobacter, and Pseudomonas.

Serratia marcescens = assay: MIC by broth microdilution against Serratia marcescens; format: cell-based; settings: N 9
Description: as §1

P. aeruginosa = assay: SEM and TEM imaging of membrane damage; format: cell-based, Pseudomonas aeruginosa; settings: prior to pore formation and lysis
Description: Additionally, the mechanism of action of both the Chp peptides and the lysins and/or lysin-AMP constructs disclosed herein may be evaluated through the use of Scanning Electron Microscopy (SEM) and Transmission Electron Microscopy (TEM) techniques. Due to the rapid permeabilization and depolarization of bacterial membranes when contacted with Chp peptides, as discussed above, membrane damage may be visualized through SEM and TEM. […] TEM and SEM images taken approximately 2 minutes after Chp peptide (8 μg/mL) contact with P. aeruginosa show the formation of multiple bulges on the bacterial membrane, as well as the appearance of pore formation and degradation of the cellular membrane. TEM and SEM images taken approximately 5 minutes after Chp peptide (8 μg/mL) contact with P. aeruginosa show continued formation of membrane bulges, along with degradation of the cellular membrane, condensation of electron-dense cytoplasmic material, formation of spheroplasts, and pore formation. TEM and SEM images taken approximately 20 minutes after Chp peptide (8 μg/mL) contact with P. aeruginosa show multiple instances of pore formation and the appearance of ghost cells, empty of intracellular content.

E. coli = assay: MIC by broth microdilution against E. coli; format: cell-based, Escherichia coli
K. pneumoniae = assay: MIC by broth microdilution against K. pneumoniae; format: cell-based, Klebsiella pneumoniae
[3] = Acinetobacter baumannii, AR Bank, N 41
[4] = Acinetobacter baumannii, Weill Cornell, N 26
[5] = Acinetobacter baumannii, all isolates, N 67
[6] = Escherichia coli, AR Bank, N 17
[7] = Escherichia coli, Weill Cornell, N 13
[8] = Escherichia coli, all isolates, N 30
[9] = Klebsiella pneumoniae, AR Bank, N 32
[10] = Klebsiella pneumoniae, Weill Cornell, N 9
[11] = Klebsiella pneumoniae, all isolates, N 41

C[C@@H](O)[C@H]1C(=O)N2C(C(=O)O)=C(S[C@@H]3CN[C@H](C(=O)N(C)C)C3)[C@H](C)[C@H]12 [meropenem, reference compound]
MIC (alone) (B. cenocepacia; B. cenocepacia (CFS 2135)): 32 µg/mL | MIC (dual agent) (B. cenocepacia; B. cenocepacia (CFS 2135)): 32 µg/mL | MIC (alone) (B. cenocepacia; B. cenocepacia (CFS 2138)): 64 µg/mL | MIC (dual agent) (B. cenocepacia; B. cenocepacia (CFS 2138)): 64 µg/mL | MIC (alone) (B. cenocepacia; B. cenocepacia (CFS 2142)): 64 µg/mL | MIC (dual agent) (B. cenocepacia; B. cenocepacia (CFS 2142)): 32 µg/mL | FICI of the antibiotic with GN370 (A. baumannii [1]): 0.5

B1: GN370: lysin-AMP construct, SEQ ID NO: 149: MIDR, FIRL and NPTH moieties N-terminal to GN202 lysin (protein)
chain: MIDRFIRLNPTHGPRRPRRPGRRAPVRTSQRGIDLIKSFEGLRLSAYQDSVGVWTIGYGTTRGVTRYMTITVEQAERMLSNDIQRFEPELDRLAKVPLNQNQWDALMSFVYNLGAANLASSTLLDLLNKGDYQGAADQFPHWVNAGGKRLDGLVKRRAAERALFLEPLS
modifications: GN370 lysin
MIC (A. baumannii [2]; A. baumannii ATCC BAA 747 (Table 27)): (MIC = 1 μg/mL) | MIC (A. baumannii [2]; A. baumannii ATCC BAA-747 (head of Table 19)): 1 µg/mL | MIC90 (A. baumannii [2]; A. baumannii clinical and resistant isolates): 1 µg/mL | MIC50 (A. baumannii [2]; [3]): 1 µg/mL | MIC90 (A. baumannii [2]; [3]): 1 µg/mL | MIC Range (A. baumannii [2]; [3]): 0.064 to 2 µg/mL | MIC50 (A. baumannii [2]; [4]): 1 µg/mL | MIC90 (A. baumannii [2]; [4]): 1 µg/mL | MIC Range (A. baumannii [2]; [4]): 0.25 to 1 µg/mL | MIC50 (A. baumannii [2]; [5]): 1 µg/mL | MIC90 (A. baumannii [2]; [5]): 1 µg/mL | MIC Range (A. baumannii [2]; [5]): 0.0625 to 2 µg/mL | MIC Range (Enterobacter aerogenes): 1 µg/mL | MIC50 (Serratia marcescens): 32 µg/mL | MIC90 (Serratia marcescens): >64 µg/mL | MIC (alone) (B. cenocepacia; B. cenocepacia (CFS 2135)): 128 µg/mL | MIC (dual agent) (B. cenocepacia; B. cenocepacia (CFS 2135)): 64 µg/mL | FICmin (B. cenocepacia; B. cenocepacia (CFS 2135)): 1.5 | FICmin interpretation (B. cenocepacia; B. cenocepacia (CFS 2135)): (Indifferent) | MIC (alone) (B. cenocepacia; B. cenocepacia (CFS 2138)): 256 µg/mL | MIC (dual agent) (B. cenocepacia; B. cenocepacia (CFS 2138)): 128 µg/mL | FICmin (B. cenocepacia; B. cenocepacia (CFS 2138)): 1.5 | FICmin interpretation (B. cenocepacia; B. cenocepacia (CFS 2138)): (Indifferent) | MIC (alone) (B. cenocepacia; B. cenocepacia (CFS 2142)): 256 µg/mL | MIC (dual agent) (B. cenocepacia; B. cenocepacia (CFS 2142)): 128 µg/mL | FICmin (B. cenocepacia; B. cenocepacia (CFS 2142)): 1 | FICmin interpretation (B. cenocepacia; B. cenocepacia (CFS 2142)): (Additive) | synergy with meropenem (B. cenocepacia; three strains of B. cenocepacia): not against B. cenocepacia | membrane damage seen by TEM and SEM (P. aeruginosa): more extensive and larger membrane blebs | MIC (E. coli; E. coli AR-128): (MIC = 0.25 μg/mL) | MIC (E. coli; E. coli ATCC 25922 (head of Table 19)): 0.5 µg/mL | MIC90 (E. coli; E. coli clinical and resistant isolates): 1 µg/mL | MIC50 (E. coli; [6]): 0.5 µg/mL | MIC90 (E. coli; [6]): 1 µg/mL | MIC Range (E. coli; [6]): 0.125 to 1 µg/mL | MIC50 (E. coli; [7]): 0.25 µg/mL | MIC90 (E. coli; [7]): 0.5 µg/mL | MIC Range (E. coli; [7]): 0.064 to 4 µg/mL | MIC50 (E. coli; [8]): 0.25 µg/mL | MIC90 (E. coli; [8]): 1 µg/mL | MIC Range (E. coli; [8]): 0.0625 to 4 µg/mL | MIC (K. pneumoniae; K. pneumoniae ATCC 700603): (MIC = 4 μg/mL) | MIC (K. pneumoniae; K. pneumoniae HM-44 (head of Table 19)): 4 µg/mL | MIC90 (K. pneumoniae; K. pneumoniae clinical and resistant isolates): 4 µg/mL | MIC50 (K. pneumoniae; [9]): 1 µg/mL | MIC90 (K. pneumoniae; [9]): 4 µg/mL | MIC Range (K. pneumoniae; [9]): 0.125 to 4 µg/mL | MIC50 (K. pneumoniae; [10]): 2 µg/mL | MIC90 (K. pneumoniae; [10]): 4 µg/mL | MIC Range (K. pneumoniae; [10]): 0.25 to 4 µg/mL | MIC50 (K. pneumoniae; [11]): 2 µg/mL | MIC90 (K. pneumoniae; [11]): 4 µg/mL | MIC Range (K. pneumoniae; [11]): 0.125 to 4 µg/mL

— US20240181022A1, “AMURINS LYSINS, AND LYSIN-ANTIMICROBIAL PEPTIDE (AMP) CONSTRUCTS ACTIVE AGAINST GRAM-NEGATIVE BACTERIA” (priority 2021, published 2024)
